Reference: US20190135918A1 (ICHNOS SCIENCES, published 2019)

What was measured:
[1] = biological target: T1, cynomolgus monkey CD3 epsilon 1-26_Fc fusion protein (cynomolgus monkey); assay: SPR, human IgG1 format, graded relative to chimeric SP34; one grade for human and cynomolgus protein
T1 construct: also called cynomolgus CD3 epsilon 1-26 Fc fusion protein

[2] = biological target: T2, human CD3 epsilon 1-26_Fc fusion protein (human); assay: as above
T2 construct: also called human CD3 1-26_Fc fusion protein

| Binder | binding result [1] | binding result [2] |
| --- | --- | --- |
| VH1/VL2 (antibody, human IgG1, kappa, IgG1; SP34 series; copies: 2 + 2) heavy: not shown light: EAVVTQSPATLSVSPGERATLSCRSSTGAVTTSNYANWVQEKPGQAFRGLIGGANKRAPGVPARFSGSLSGDEATLTISSLQSEDFAVYFCALWYSNLWVFGQGTKLEIKRTVAAPSVFIFPPSDEQLKSGTASVVCLLNNFYPREAKVQWKVDNALQSGNSQESVTEQDSKDSTYSLSSTLTLSKADYEKHKVYACEVTHQGLSSPVTKSFNRGEC | binds | binds |
| VH1/VL8 (antibody, human IgG1, kappa, V domains shown, IgG1; also called humanized SP34 VH1/VL8 antibody; copies: 2 + 2) VH: EVQLVESGGGLVQPGGSLRLSCAASGFTFNTYAMNWVRQAPGKGLEWVARIRSKYNNYATYYADSVKGRFTISRDDSKNTLYLQMNSLRAEDTAVYYCVRHGNFGNSYVSWFAYWGQGTTVTVSS VL: EAVVTQSPATLSVSPGERATLSCRSSTGAVTTSNYANWVQEKPGQAFRGLIGGANKRAPGVPARFSGSGSGDEATLTISSLQSEDFAVYFCALWYSNLWVFGQGTKLEIKR | binds | binds |
| VH1/VL18 (antibody, human IgG1, kappa, IgG1; also called humanized SP34 VH1/VL18 antibody; copies: 2 + 2) heavy: not shown light: EIVVTQSPATLSVSPGERATLSCRSSTGAVTTSNYANWVQEKPGQAFRGLIGGANKRAPGVPARFSGSLSGDEATLTISSLQSEDFAVYFCALWYSNLWVFGGGTKLEIKRTVAAPSVFIFPPSDEQLKSGTASVVCLLNNFYPREAKVQWKVDNALQSGNSQESVTEQDSKDSTYSLSSTLTLSKADYEKHKVYACEVTHQGLSSPVTKSFNRGEC | binds | binds |
| VH1/VL17 (antibody, human IgG1, kappa, IgG1; also called humanized SP34 VH1/VL17 antibody; copies: 2 + 2) heavy: not shown light: EIVVTQSPATLSVSPGERATLSCRASTGAVTTSNYANWVQEKPGQAFRGLIGGANKRAPGVPARFSGSLSGDEATLTISSLQSEDFAVYFCALWYSNLWVFGQGTKLEIKRTVAAPSVFIFPPSDEQLKSGTASVVCLLNNFYPREAKVQWKVDNALQSGNSQESVTEQDSKDSTYSLSSTLTLSKADYEKHKVYACEVTHQGLSSPVTKSFNRGEC | binds | binds |
| VH1/VL12 (antibody, human IgG1, kappa, IgG1; also called humanized SP34 VH1/VL12 antibody; copies: 2 + 2) heavy: not shown light: EAVVTQSPATLSVSPGERATLSCRSSTGAVTTSNYANWVQEKPGQAFRGLIGGANKRAPGVPARFSGSLSGTEATLTISSLQSEDFAVYFCALWYSNLWVFGQGTKLEIKRTVAAPSVFIFPPSDEQLKSGTASVVCLLNNFYPREAKVQWKVDNALQSGNSQESVTEQDSKDSTYSLSSTLTLSKADYEKHKVYACEVTHQGLSSPVTKSFNRGEC | binds | binds |
| VH1/VL13 (antibody, human IgG1, kappa, IgG1; also called humanized SP34 VH1/VL13 antibody; copies: 2 + 2) heavy: not shown light: EAVVTQSPATLSVSPGERATLSCRASTGAVTTSNYANWVQEKPGQAFRGLIGGANKRAPGVPARFSGSLSGDEATLTISSLQSEDFAVYFCALWYSNLWVFGQGTKLEIKRTVAAPSVFIFPPSDEQLKSGTASVVCLLNNFYPREAKVQWKVDNALQSGNSQESVTEQDSKDSTYSLSSTLTLSKADYEKHKVYACEVTHQGLSSPVTKSFNRGEC | binds | binds |
| VH1/VL14 (antibody, human IgG1, kappa, V domains shown, IgG1; also called humanized SP34 VH1/VL14 antibody; copies: 2 + 2) VH: EVQLVESGGGLVQPGGSLRLSCAASGFTFNTYAMNWVRQAPGKGLEWVARIRSKYNNYATYYADSVKGRFTISRDDSKNTLYLQMNSLRAEDTAVYYCVRHGNFGNSYVSWFAYWGQGTTVTVSS VL: EAVVTQSPATLSVSPGERATLSCRSSTGAVTTSNYANWVQEKPGQAFRLLIGGANKRAPGVPARFSGSLSGDEATLTISSLQSEDFAVYFCALWYSNLWVFGQGTKLEIKR | no binding (tested: not printed) | no binding (tested: not printed) |
| VH1/VL11 (antibody, human IgG1, kappa, V domains shown, IgG1; also called humanized SP34 VH1/VL11 antibody; copies: 2 + 2) VH: EVQLVESGGGLVQPGGSLRLSCAASGFTFNTYAMNWVRQAPGKGLEWVARIRSKYNNYATYYADSVKGRFTISRDDSKNTLYLQMNSLRAEDTAVYYCVRHGNFGNSYVSWFAYWGQGTTVTVSS VL: EAVVTQSPATLSVSPGERATLSCRSSTGAVTTSNYANWVQEKPGQAFRGLIGGANKRAPGVPARFSGSGSGTEATLTISSLQSEDFAVYFCALWYSNLWVFGQGTKLEIKR | binds | binds |

Now from value to binder:

| binding result [1] | binding result [2] | Binder |
| --- | --- | --- |
| binds | binds | VH1/VL15 (antibody, human IgG1, kappa, V domains shown, IgG1; also called humanized SP34 VH1/VL15 antibody; copies: 2 + 2) VH: EVQLVESGGGLVQPGGSLRLSCAASGFTFNTYAMNWVRQAPGKGLEWVARIRSKYNNYATYYADSVKGRFTISRDDSKNTLYLQMNSLRAEDTAVYYCVRHGNFGNSYVSWFAYWGQGTTVTVSS VL: EAVVTQSPATLSVSPGERATLSCRSSTGAVTTSNYANWVQQKPGQAFRGLIGGANKRAPGVPARFSGSLSGDEATLTISSLQSEDFAVYFCALWYSNLWVFGQGTKLEIKR |
| binds | binds | VH1/VL5 (antibody, human IgG1, kappa, IgG1; also called humanized SP34 VH1/VL5 antibody; copies: 2 + 2) heavy: not shown light: EIVVTQSPATLSVSPGERATLSCRSSTGAVTTSNYANWVQEKPGQAFRGLIGGANKRAPGVPARFSGSLSGDEATLTISSLQSEDFAVYFCALWYSNLWVFGQGTKLEIKRTVAAPSVFIFPPSDEQLKSGTASVVCLLNNFYPREAKVQWKVDNALQSGNSQESVTEQDSKDSTYSLSSTLTLSKADYEKHKVYACEVTHQGLSSPVTKSFNRGEC |
| binds | binds | VH1/VL10 (antibody, human IgG1, kappa, IgG1; also called humanized SP34 VH1/VL10 antibody; copies: 2 + 2) heavy: not shown light: EAVVTQSPATLSVSPGERATLSCRSSTGAVTTSNYANWVQEKPGQAFRGLIGGANKRAPGVPARFSGSLSGDEATLTISSLQSEDFAVYYCALWYSNLWVFGQGTKLEIKRTVAAPSVFIFPPSDEQLKSGTASVVCLLNNFYPREAKVQWKVDNALQSGNSQESVTEQDSKDSTYSLSSTLTLSKADYEKHKVYACEVTHQGLSSPVTKSFNRGEC |
| binds | binds | VH1/VL6 (antibody, human IgG1, kappa, V domains shown, IgG1; also called humanized SP34 VH1/VL6 antibody; copies: 2 + 2) VH: EVQLVESGGGLVQPGGSLRLSCAASGFTFNTYAMNWVRQAPGKGLEWVARIRSKYNNYATYYADSVKGRFTISRDDSKNTLYLQMNSLRAEDTAVYYCVRHGNFGNSYVSWFAYWGQGTTVTVSS VL: EAVVTQSPATLSVSPGERATLSCRSSTGAVTTSNYANWVQEKPGQAPRGLIGGANKRAPGVPARFSGSLSGDEATLTISSLQSEDFAVYFCALWYSNLWVFGQGTKLEIKR |
| binds | binds | VH1/VL16 (antibody, human IgG1, kappa, IgG1; also called humanized SP34 VH1/VL16 antibody; copies: 2 + 2) heavy: not shown light: EIVVTQSPATLSVSPGERATLSCRSSTGAVTTSNYANWVQEKPGQAFRGLIGGANKRAPGVPARFSGSLSGTEATLTISSLQSEDFAVYFCALWYSNLWVFGQGTKLEIKRTVAAPSVFIFPPSDEQLKSGTASVVCLLNNFYPREAKVQWKVDNALQSGNSQESVTEQDSKDSTYSLSSTLTLSKADYEKHKVYACEVTHQGLSSPVTKSFNRGEC |
| binds | binds | Chimeric SP34 (antibody, human IgG1, kappa, V domains shown, IgG1; also called chimeric SP34 antibody; SP34 chimera) VH: EVQLVESGGGLVQPKGSLKLSCAASGFTFNTYAMNWVRQAPGKGLEWVARIRSKYNNYATYYADSVKDRFTISRDDSQSILYLQMNNLKTEDTAMYYCVRHGNFGNSYVSWFAYWGQGTLVTVSA VL: QAVVTQESALTTSPGETVTLTCRSSTGAVTTSNYANWVQEKPDHLFTGLIGGTNKRAPGVPARFSGSLIGDKAALTITGAQTEDEAIYFCALWYSNLWVFGGGTKLTVLR |
